The data set relates to Escherichia coli TOP10. The data set can be described thus: shrunken log2 fold change of peptide-encoding DNA abundance (4.5 h post-induction vs induction); higher = less antimicrobial activity (less host growth inhibition). Particulars: time post-induction: 4.5 h; library: site-saturation at positions 5, 18, 19, 20.
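Also: peptides expressed intracellularly from a pBAD plasmid library in pooled LB shake-flask culture, induced with 0.3% L-arabinose, DNA abundance read by NGS, three biological replicates, DESeq2 with apeglm shrinkage.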

In the case of RRIRKRPPRLPRPRPRPSTNPRP, the “shrunken log2 fold change” value was determined as 0.0826.

Regarding RRIRTRPPRLPRPRPRPLTQPRP, the “shrunken log2 fold change” value is -0.309.

Turning to RRIRGRPPRLPRPRPRPFALPRP, the “shrunken log2 fold change” value is 0.278.

Regarding RRIRIRPPRLPRPRPRPWTEPRP, the “shrunken log2 fold change” value is -0.843.

For RRIRMRPPRLPRPRPRPISYPRP, the “shrunken log2 fold change” value is -0.0167.

Take RRIRGRPPRLPRPRPRPYAQPRP: the “shrunken log2 fold change” value was 0.104.

Consider RRIRRRPPRLPRPRPRPEPRPRP, for which the “shrunken log2 fold change” value amounted to 1.02.

Take RRIRKRPPRLPRPRPRPKQHPRP: the “shrunken log2 fold change” value was found to be 0.657.

Consider RRIRFRPPRLPRPRPRPYENPRP, for which the “shrunken log2 fold change” value was -0.463.

Take RRIRNRPPRLPRPRPRPHPYPRP: the “shrunken log2 fold change” value was -0.654.

As to RRIRVRPPRLPRPRPRPKIRPRP, the “shrunken log2 fold change” value came to 0.161.

With RRIRRRPPRLPRPRPRPNFKPRP, the “shrunken log2 fold change” value amounted to 0.092.

Consider RRIRQRPPRLPRPRPRPTCKPRP, for which the “shrunken log2 fold change” value is 0.0706.

As for RRIRPRPPRLPRPRPRPIMAPRP, the “shrunken log2 fold change” value was -0.0956.

As to RRIRCRPPRLPRPRPRPVWFPRP, the “shrunken log2 fold change” value was determined as 0.029.

Take RRIRLRPPRLPRPRPRPMTSPRP: the “shrunken log2 fold change” value worked out at 0.142.

Turning to RRIRFRPPRLPRPRPRPPGNPRP, the “shrunken log2 fold change” value is 0.0667.

As to RRIRQRPPRLPRPRPRPSQSPRP, the “shrunken log2 fold change” value is -0.00144.

Consider RRIRMRPPRLPRPRPRPSVNPRP, for which the “shrunken log2 fold change” value was -0.0473.

Turning to RRIRLRPPRLPRPRPRPECVPRP, the “shrunken log2 fold change” value was 0.148.

RRIRNRPPRLPRPRPRPFYGPRP: the “shrunken log2 fold change” value was -0.107.

Regarding RRIRRRPPRLPRPRPRPQITPRP, the “shrunken log2 fold change” value is 0.0752.

Consider RRIRHRPPRLPRPRPRPKIGPRP, for which the “shrunken log2 fold change” value was 0.0776.

For RRIRHRPPRLPRPRPRPKHIPRP, the “shrunken log2 fold change” value was -0.413.

Take RRIRPRPPRLPRPRPRPCIGPRP: the “shrunken log2 fold change” value was 0.00708.

Take RRIRERPPRLPRPRPRPEYVPRP: the “shrunken log2 fold change” value is -0.0151.

Regarding RRIRDRPPRLPRPRPRPLEAPRP, the “shrunken log2 fold change” value came to 0.679.

With RRIRTRPPRLPRPRPRPKDMPRP, the “shrunken log2 fold change” value is -0.0311.

Turning to RRIRRRPPRLPRPRPRPHYGPRP, the “shrunken log2 fold change” value is -0.178.

Consider RRIRHRPPRLPRPRPRPDFLPRP, for which the “shrunken log2 fold change” value was -0.0554.

On to RRIRVRPPRLPRPRPRPGSAPRP, for which the “shrunken log2 fold change” value was 0.179.

On to RRIRPRPPRLPRPRPRPIQPPRP, for which the “shrunken log2 fold change” value is -0.0445.

Consider RRIRWRPPRLPRPRPRPKHQPRP, for which the “shrunken log2 fold change” value was 0.195.

Regarding RRIRFRPPRLPRPRPRPGFRPRP, the “shrunken log2 fold change” value was 0.0855.

RRIRFRPPRLPRPRPRPWDLPRP: the “shrunken log2 fold change” value came out at 2.08.

As to RRIRQRPPRLPRPRPRPNKEPRP, the “shrunken log2 fold change” value is 0.00917.

Consider RRIRSRPPRLPRPRPRPDFVPRP, for which the “shrunken log2 fold change” value is -0.106.

As to RRIRNRPPRLPRPRPRPDLFPRP, the “shrunken log2 fold change” value was -0.00884.

Consider RRIRFRPPRLPRPRPRPMGAPRP, for which the “shrunken log2 fold change” value is -0.0556.

As to RRIRGRPPRLPRPRPRPQYPPRP, the “shrunken log2 fold change” value was -0.865.

Take RRIRGRPPRLPRPRPRPLETPRP: the “shrunken log2 fold change” value turned out to be 0.985.

On to RRIRTRPPRLPRPRPRPNSSPRP, for which the “shrunken log2 fold change” value is -0.13.

Regarding RRIRCRPPRLPRPRPRPFTKPRP, the “shrunken log2 fold change” value was -0.628.

Take RRIRFRPPRLPRPRPRPQYGPRP: the “shrunken log2 fold change” value was -0.0328.

RRIRYRPPRLPRPRPRPHYSPRP: the “shrunken log2 fold change” value is -0.124.

In the case of RRIRRRPPRLPRPRPRPHGWPRP, the “shrunken log2 fold change” value came out at 0.784.

Turning to RRIRARPPRLPRPRPRPEYRPRP, the “shrunken log2 fold change” value is 0.0382.

Consider RRIRPRPPRLPRPRPRPRVSPRP, for which the “shrunken log2 fold change” value amounted to 0.00758.

For the sequence RRIRSRPPRLPRPRPRPEWIPRP, the “shrunken log2 fold change” value was 0.021.

For the sequence RRIRDRPPRLPRPRPRPARNPRP, the “shrunken log2 fold change” value was found to be 0.316.

On to RRIRPRPPRLPRPRPRPLTWPRP, for which the “shrunken log2 fold change” value came out at 0.0214.

For RRIRRRPPRLPRPRPRPEQIPRP, the “shrunken log2 fold change” value worked out at 0.0197.

Turning to RRIRIRPPRLPRPRPRPRAQPRP, the “shrunken log2 fold change” value worked out at 0.27.

Regarding RRIRPRPPRLPRPRPRPWSAPRP, the “shrunken log2 fold change” value is -0.00633.

RRIRMRPPRLPRPRPRPMKEPRP: the “shrunken log2 fold change” value is -0.0707.

On to RRIRLRPPRLPRPRPRPSKIPRP, for which the “shrunken log2 fold change” value was -0.349.

With RRIRQRPPRLPRPRPRPENFPRP, the “shrunken log2 fold change” value is -0.00776.

For RRIRDRPPRLPRPRPRPPETPRP, the “shrunken log2 fold change” value was determined as 0.743.

Regarding RRIRTRPPRLPRPRPRPNEVPRP, the “shrunken log2 fold change” value worked out at 0.0231.

As to RRIRWRPPRLPRPRPRPATMPRP, the “shrunken log2 fold change” value worked out at 0.0187.

For the sequence RRIRARPPRLPRPRPRPQGWPRP, the “shrunken log2 fold change” value turned out to be 0.472.

Take RRIRQRPPRLPRPRPRPINLPRP: the “shrunken log2 fold change” value was -0.123.

In the case of RRIRYRPPRLPRPRPRPRVCPRP, the “shrunken log2 fold change” value was 0.0157.

With RRIRGRPPRLPRPRPRPEPAPRP, the “shrunken log2 fold change” value was 1.69.

Consider RRIRDRPPRLPRPRPRPHVMPRP, for which the “shrunken log2 fold change” value was -0.0796.

As to RRIRYRPPRLPRPRPRPNHCPRP, the “shrunken log2 fold change” value was determined as 0.00938.

On to RRIRKRPPRLPRPRPRPEDVPRP, for which the “shrunken log2 fold change” value is -0.04.

In the case of RRIRYRPPRLPRPRPRPCENPRP, the “shrunken log2 fold change” value is -0.215.

Consider RRIRPRPPRLPRPRPRPMCEPRP, for which the “shrunken log2 fold change” value is -0.0631.

RRIRERPPRLPRPRPRPNDWPRP: the “shrunken log2 fold change” value is -0.133.

For RRIRDRPPRLPRPRPRPERWPRP, the “shrunken log2 fold change” value was 1.3.

RRIRSRPPRLPRPRPRPTFTPRP: the “shrunken log2 fold change” value was -0.269.

For the sequence RRIRQRPPRLPRPRPRPDLYPRP, the “shrunken log2 fold change” value is -0.105.

For RRIRRRPPRLPRPRPRPNPLPRP, the “shrunken log2 fold change” value was 0.269.

Turning to RRIRKRPPRLPRPRPRPPCFPRP, the “shrunken log2 fold change” value is 0.211.

On to RRIRCRPPRLPRPRPRPYNIPRP, for which the “shrunken log2 fold change” value is -1.27.

RRIRNRPPRLPRPRPRPICGPRP: the “shrunken log2 fold change” value was -0.253.

Take RRIRFRPPRLPRPRPRPHDQPRP: the “shrunken log2 fold change” value is 0.0225.

Turning to RRIRLRPPRLPRPRPRPLAAPRP, the “shrunken log2 fold change” value amounted to 0.345.

As to RRIRDRPPRLPRPRPRPCCEPRP, the “shrunken log2 fold change” value is 0.961.

Take RRIRRRPPRLPRPRPRPCSQPRP: the “shrunken log2 fold change” value came out at 0.0499.

With RRIRKRPPRLPRPRPRPRICPRP, the “shrunken log2 fold change” value is 0.0539.

For RRIRGRPPRLPRPRPRPVFFPRP, the “shrunken log2 fold change” value is 0.888.

With RRIRIRPPRLPRPRPRPFHKPRP, the “shrunken log2 fold change” value is -0.196.

On to RRIRMRPPRLPRPRPRPGGRPRP, for which the “shrunken log2 fold change” value worked out at 1.04.

As for RRIRIRPPRLPRPRPRPKFAPRP, the “shrunken log2 fold change” value was -0.0494.

For RRIRARPPRLPRPRPRPYLIPRP, the “shrunken log2 fold change” value was -0.659.

Turning to RRIRNRPPRLPRPRPRPHMLPRP, the “shrunken log2 fold change” value was -0.954.

Turning to RRIRPRPPRLPRPRPRPFIAPRP, the “shrunken log2 fold change” value is -0.342.

RRIRKRPPRLPRPRPRPTHFPRP: the “shrunken log2 fold change” value is -0.105.

Turning to RRIRQRPPRLPRPRPRPPGDPRP, the “shrunken log2 fold change” value turned out to be 0.194.

For the sequence RRIRGRPPRLPRPRPRPDRMPRP, the “shrunken log2 fold change” value is -0.107.

Regarding RRIRFRPPRLPRPRPRPKMTPRP, the “shrunken log2 fold change” value was -0.173.

Consider RRIRNRPPRLPRPRPRPMTRPRP, for which the “shrunken log2 fold change” value was -0.386.

RRIRERPPRLPRPRPRPCANPRP: the “shrunken log2 fold change” value is -0.158.

In the case of RRIRCRPPRLPRPRPRPWNRPRP, the “shrunken log2 fold change” value is -0.162.

For RRIRERPPRLPRPRPRPLEKPRP, the “shrunken log2 fold change” value was 0.094.

Take RRIRERPPRLPRPRPRPKSGPRP: the “shrunken log2 fold change” value is -0.136.

In the case of RRIRMRPPRLPRPRPRPERWPRP, the “shrunken log2 fold change” value is 1.5.

In the case of RRIRPRPPRLPRPRPRPLNGPRP, the “shrunken log2 fold change” value is -0.0765.

RRIRGRPPRLPRPRPRPGHQPRP: the “shrunken log2 fold change” value was determined as 0.124.

On to RRIRFRPPRLPRPRPRPNEYPRP, for which the “shrunken log2 fold change” value is -0.16.

Turning to RRIRKRPPRLPRPRPRPDDRPRP, the “shrunken log2 fold change” value turned out to be 0.0147.

In the case of RRIRQRPPRLPRPRPRPSLPPRP, the “shrunken log2 fold change” value came to 0.289.

RRIRFRPPRLPRPRPRPGTEPRP: the “shrunken log2 fold change” value stood at 0.0589.

Consider RRIRERPPRLPRPRPRPHGWPRP, for which the “shrunken log2 fold change” value was 0.136.

As for RRIRPRPPRLPRPRPRPDHRPRP, the “shrunken log2 fold change” value is -0.0495.

As to RRIRHRPPRLPRPRPRPNCHPRP, the “shrunken log2 fold change” value is -0.444.

RRIRYRPPRLPRPRPRPCTEPRP: the “shrunken log2 fold change” value is -0.531.

As to RRIRARPPRLPRPRPRPEVCPRP, the “shrunken log2 fold change” value is 1.25.

Turning to RRIRMRPPRLPRPRPRPAKHPRP, the “shrunken log2 fold change” value stood at 0.542.

Take RRIRHRPPRLPRPRPRPVPEPRP: the “shrunken log2 fold change” value was 0.143.

With RRIRQRPPRLPRPRPRPTVVPRP, the “shrunken log2 fold change” value was -0.00822.

As for RRIRWRPPRLPRPRPRPSFYPRP, the “shrunken log2 fold change” value was -0.328.

For the sequence RRIRRRPPRLPRPRPRPDTRPRP, the “shrunken log2 fold change” value was -0.0459.

For RRIRLRPPRLPRPRPRPRLYPRP, the “shrunken log2 fold change” value was -0.26.

On to RRIRCRPPRLPRPRPRPFSLPRP, for which the “shrunken log2 fold change” value is -0.239.

With RRIRVRPPRLPRPRPRPLKTPRP, the “shrunken log2 fold change” value was -0.0304.

On to RRIRLRPPRLPRPRPRPMFMPRP, for which the “shrunken log2 fold change” value is -0.208.

For the sequence RRIRFRPPRLPRPRPRPEYQPRP, the “shrunken log2 fold change” value was -0.0212.

For the sequence RRIRKRPPRLPRPRPRPTMPPRP, the “shrunken log2 fold change” value turned out to be 0.282.

Take RRIRQRPPRLPRPRPRPNQQPRP: the “shrunken log2 fold change” value is -0.0802.

For RRIRFRPPRLPRPRPRPCWYPRP, the “shrunken log2 fold change” value is -0.225.

As for RRIRFRPPRLPRPRPRPYLQPRP, the “shrunken log2 fold change” value is -0.527.

For RRIRYRPPRLPRPRPRPTHLPRP, the “shrunken log2 fold change” value is -0.0864.
